Test results from patent US20230140868A1, “COMPOSITIONS AND METHODS FOR TREATING CANCER” (Alpha Beta Holdings, LLC, priority 2020, published 2023).

Legend:
human FcγRI = target: T1, human FcγRI (Homo sapiens, UniProt P12314); assay: Promega ADCC Reporter Bioassay, FcγRI (FIG. 7); type: cell-based; settings: target cells: integrin avβ3-expressing human pancreatic cancer cells; Raji effector line with NFAT-induced luciferase
T1 construct: host or cells: Raji cell line (so in the source), stably expressing the receptor and NFAT-induced luciferase
T1 sequence (P12314 16-374): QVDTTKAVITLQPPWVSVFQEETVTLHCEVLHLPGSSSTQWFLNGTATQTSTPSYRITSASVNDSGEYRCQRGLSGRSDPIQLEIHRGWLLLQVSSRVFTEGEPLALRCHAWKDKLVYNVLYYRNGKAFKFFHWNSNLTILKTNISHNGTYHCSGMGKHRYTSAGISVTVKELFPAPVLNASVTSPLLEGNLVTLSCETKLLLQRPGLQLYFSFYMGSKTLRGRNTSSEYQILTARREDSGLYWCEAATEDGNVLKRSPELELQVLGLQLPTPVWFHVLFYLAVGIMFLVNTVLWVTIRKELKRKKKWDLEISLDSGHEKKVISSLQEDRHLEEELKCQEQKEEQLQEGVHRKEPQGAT
Procedure: (§1) Integrin avβ3-expressing human pancreatic cancer cells were utilized as “target cells” to assess the ability of anti-avβ3 antibodies to elicit effector cell activation using a Promega ADCC Reporter Bioassay in which “effector cell” activation is evaluated using a Raji cell line stably expressing the human FcγR I or III and NFAT-induced luciferase. Six antibody dilutions were tested per antibody, with FcγR activation shown as fold change relative to treatment with assay buffer containing no antibody.
(§2) Whereas NK cells utilize only FcγRIII/CD16 to engage antibody Fc regions, macrophages can utilize FcγRI/CD64.

human FcγRIII = assay: Promega ADCC Reporter Bioassay, FcγRIII (FIG. 7); type: cell-based; settings: target cells: integrin avβ3-expressing human pancreatic cancer cells; Raji effector line with NFAT-induced luciferase
Procedure: as §1, §2

integrin αvβ3 = integrin αvβ3 (Homo sapiens, UniProt P05106+P06756); assay: In vitro cell adhesion assay on fibrinogen (FIG. 8); type: cell-based
Sequence of integrin αvβ3 (P06756 31-889 limits assumed): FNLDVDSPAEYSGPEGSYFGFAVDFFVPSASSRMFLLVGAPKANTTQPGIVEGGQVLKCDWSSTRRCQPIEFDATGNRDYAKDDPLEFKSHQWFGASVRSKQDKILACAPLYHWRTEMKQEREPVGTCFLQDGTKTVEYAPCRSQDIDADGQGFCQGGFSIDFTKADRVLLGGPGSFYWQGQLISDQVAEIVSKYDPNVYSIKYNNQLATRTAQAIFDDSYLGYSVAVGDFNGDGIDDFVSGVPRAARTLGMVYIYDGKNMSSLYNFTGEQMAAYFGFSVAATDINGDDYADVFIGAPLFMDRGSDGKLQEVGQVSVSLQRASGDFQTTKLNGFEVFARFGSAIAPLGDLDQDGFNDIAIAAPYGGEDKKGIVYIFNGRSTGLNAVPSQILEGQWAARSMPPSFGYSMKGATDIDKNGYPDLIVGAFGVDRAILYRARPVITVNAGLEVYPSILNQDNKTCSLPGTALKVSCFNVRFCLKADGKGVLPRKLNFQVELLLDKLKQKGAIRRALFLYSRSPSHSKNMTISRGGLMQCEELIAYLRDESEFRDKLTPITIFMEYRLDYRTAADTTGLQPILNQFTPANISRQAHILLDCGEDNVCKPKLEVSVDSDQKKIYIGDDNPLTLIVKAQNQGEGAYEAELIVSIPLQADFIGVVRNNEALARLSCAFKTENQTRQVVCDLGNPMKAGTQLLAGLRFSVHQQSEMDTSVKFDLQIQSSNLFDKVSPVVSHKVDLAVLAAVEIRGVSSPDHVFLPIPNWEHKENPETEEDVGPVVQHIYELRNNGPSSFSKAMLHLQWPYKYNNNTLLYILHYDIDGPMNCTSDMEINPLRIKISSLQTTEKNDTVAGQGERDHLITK
Sequence of integrin αvβ3 (P06756 891-1048 limits assumed): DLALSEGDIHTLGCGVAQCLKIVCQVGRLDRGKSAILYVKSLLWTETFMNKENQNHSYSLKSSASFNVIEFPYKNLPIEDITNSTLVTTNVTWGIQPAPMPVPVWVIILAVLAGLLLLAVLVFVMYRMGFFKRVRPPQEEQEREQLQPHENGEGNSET
Sequence of integrin αvβ3 (P05106 27-788): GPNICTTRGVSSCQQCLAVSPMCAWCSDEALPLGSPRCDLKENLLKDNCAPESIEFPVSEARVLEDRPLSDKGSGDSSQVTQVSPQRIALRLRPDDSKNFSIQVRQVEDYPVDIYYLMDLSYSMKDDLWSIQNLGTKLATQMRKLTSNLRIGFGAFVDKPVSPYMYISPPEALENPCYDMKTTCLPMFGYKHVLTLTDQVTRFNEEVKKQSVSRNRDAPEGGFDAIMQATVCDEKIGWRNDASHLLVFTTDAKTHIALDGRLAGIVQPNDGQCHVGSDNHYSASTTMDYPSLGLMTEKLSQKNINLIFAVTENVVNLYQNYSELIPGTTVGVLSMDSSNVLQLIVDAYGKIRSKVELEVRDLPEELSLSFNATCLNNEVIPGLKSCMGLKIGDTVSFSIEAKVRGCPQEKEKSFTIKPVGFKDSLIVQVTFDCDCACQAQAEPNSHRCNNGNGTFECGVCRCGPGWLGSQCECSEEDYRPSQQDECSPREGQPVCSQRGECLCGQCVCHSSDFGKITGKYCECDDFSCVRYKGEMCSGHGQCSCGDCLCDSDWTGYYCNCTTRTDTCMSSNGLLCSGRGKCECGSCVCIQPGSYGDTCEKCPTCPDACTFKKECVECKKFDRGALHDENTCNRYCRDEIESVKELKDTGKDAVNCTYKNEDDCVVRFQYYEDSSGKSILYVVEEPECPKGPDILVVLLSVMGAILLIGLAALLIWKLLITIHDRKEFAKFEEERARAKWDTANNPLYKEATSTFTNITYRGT
Procedure: (§3) Antibody affinity is evaluated using an in vitro cell adhesion assay. 48 well tissue culture plates were coated with the integrin avβ3 ligand fibrinogen or the integrin β1 ligand type I collagen, and 2000-10000 cells were added in the presence of each antibody for a range of 2-fold dilutions starting at 5 μg/mL in duplicate. Plates were washed at the endpoint and cells attached to the substrate detected using crystal violet.
(§4) Each antibody was tested for its ability to prevent the adhesion of integrin αvβ3-expressing tumor cells to the αvβ3-mediated adhesion to fibrinogen as well as the β1-integrin mediated adhesion to type I collagen.

[1] = test system: αvβ3-expressing human lung cancer cells; assay: In vitro ADCC, human NK cells as effector cells (FIG. 10B); type: cell-based; settings: increasing E:T
Source text: (A) In vitro ADCC for primary human monocyte-derived macrophages as effector cells. (B). In vitro ADCC for human NK cells as effector cells. Graphs show effect of increasing effector-to-target ratio (E:T) on death of αvβ3-expressing human lung cancer cells.
This distinction could produce a therapeutic advantage by achieving matching between the antigen (integrin αvβ3) and the types of effector cells that are particularly enriched in αvβ3-expressing tumors, such as macrophages.

integrin β1 = integrin β1 (Homo sapiens, UniProt P05556); assay: In vitro cell adhesion assay on type I collagen (FIG. 8); type: cell-based; parameters: endogenous in cells; settings: 2-fold dilutions starting at 5 μg/mL
Sequence of integrin β1 (P05556 21-798): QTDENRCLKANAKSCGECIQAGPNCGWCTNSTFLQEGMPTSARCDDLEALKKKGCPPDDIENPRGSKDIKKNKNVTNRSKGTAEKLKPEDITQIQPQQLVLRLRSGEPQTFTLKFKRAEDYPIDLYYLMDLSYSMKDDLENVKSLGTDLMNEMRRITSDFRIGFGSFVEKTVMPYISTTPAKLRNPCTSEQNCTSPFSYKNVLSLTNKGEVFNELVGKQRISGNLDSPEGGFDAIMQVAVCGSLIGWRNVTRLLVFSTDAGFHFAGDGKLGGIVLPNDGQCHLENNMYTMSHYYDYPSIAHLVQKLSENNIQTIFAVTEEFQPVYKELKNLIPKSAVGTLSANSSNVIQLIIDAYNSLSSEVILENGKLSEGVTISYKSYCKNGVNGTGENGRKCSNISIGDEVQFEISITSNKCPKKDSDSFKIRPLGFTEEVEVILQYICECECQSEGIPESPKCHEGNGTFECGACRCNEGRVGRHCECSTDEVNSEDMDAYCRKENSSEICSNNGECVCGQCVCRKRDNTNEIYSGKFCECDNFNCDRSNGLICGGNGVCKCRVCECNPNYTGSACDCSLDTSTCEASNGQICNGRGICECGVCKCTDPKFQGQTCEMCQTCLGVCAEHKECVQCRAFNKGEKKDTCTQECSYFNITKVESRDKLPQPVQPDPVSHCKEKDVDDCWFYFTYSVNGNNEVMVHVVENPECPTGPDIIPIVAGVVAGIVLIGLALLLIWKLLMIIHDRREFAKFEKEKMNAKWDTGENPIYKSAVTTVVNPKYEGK
Procedure: as §3, §4

[2] = test system: HCC827 αvβ3-negative human EGFR mutant lung cancer cells; assay: HCC827 xenograft, delay of onset of erlotinib resistance; type: in vivo, nu/nu mice; settings: erlotinib alone, oral, 6.25 mg/kg, six times/week
Procedure: Briefly, HCC827 (5×10^6 tumor cells in 100 μl of PBS) αvβ3-negative human EGFR mutant lung cancer cells were subcutaneously injected to the right flank of female nu/nu mice (Charles River, 088, 8-10 weeks old). Tumors were measured with calipers twice per week. […] Tumors were placed into liquid nitrogen, OCT compound, or 10% formalin.

FcγRI activation on effector cells (human FcγRI)	αvβ3-mediated adhesion to fibrinogen (integrin αvβ3; 2-fold dilutions starting at 5 μg/mL)	antibody affinity, shown by ability to block αvβ3-dependent cell adhesion (integrin αvβ3; comparison of isotype variants)	Compound	FcγRIII activation on effector cells (human FcγRIII)	ADCC with human NK cells as effector cells [1]	β1-integrin mediated adhesion to type I collagen (integrin β1)	tumor size [2]
lower levels of engagement	blocked adhesion to fibrinogen	equivalent	hLM609-hIgG1: humanized LM609, hIgG1 isotype (etaracizumab/Vitaxin); heavy chain SEQ ID NO:9, light chain SEQ ID NO:10 [reference compound]	can strongly activate FcγRIII	engages NK cells	without disrupting β1-mediated adhesion to collagen	–
–	–	–	C#Cc1cccc(Nc2ncnc3cc(OCCOC)c(OCCOC)cc23)c1 [erlotinib]	–	–	–	initial reduction in tumor size, this is followed by an eventual tumor re-growth
